Experimental data published in article PMC3203580.

Legend:
rhSmad1 MH1 [1] = target: T1, rhSmad1 MH1 (Homo sapiens, UniProt Q15797 1-143); assay: EMSA
rhSmad1 MH1 [2] = target: T1, rhSmad1 MH1; assay: competition
rhSmad1 MH1 [3] = target: T1, rhSmad1 MH1; assay: competition; remark: listed apart in the source

T1 sequence (Q15797 1-143): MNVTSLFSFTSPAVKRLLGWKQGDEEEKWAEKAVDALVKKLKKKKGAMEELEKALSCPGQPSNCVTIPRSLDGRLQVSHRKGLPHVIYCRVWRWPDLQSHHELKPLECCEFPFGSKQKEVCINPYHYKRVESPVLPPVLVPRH

B1: GC-SBE WT (dsDNA)
DNA 1: ACAGCTCTGGAGCCAGATGGCCTGG
DNA 2: CCAGGCCATCTGGCTCCAGAGCTGT
rhSmad1 MH1 [1]
  binding result: binds

B2: GC-SBE mut (dsDNA)
DNA 1: ACAGCTCTAGATCCAGATGGCCTGG
DNA 2: CCAGGCCATCTGGATCTAGAGCTGT
rhSmad1 MH1 [2]
  binding result: no binding

B3: GC-SBE Cmut (GGCGCC) (dsDNA)
DNA 1: ACAGCTCTGGCGCCAGATGGCCTGG
DNA 2: CCAGGCCATCTGGCGCCAGAGCTGT
rhSmad1 MH1 [3]
  binding result: binds
